Measurements reported in paper PMC9482650, “Quantitative fragmentomics allow affinity mapping of interactomes” (Nature Communications, 2022).

How the values were obtained:
Assay in all cases: holdup assay
Set-up in all cases: key: below the threshold = too weak to quantify, mostly under pKd 3.1 to 4
[1] = biological target: IL16_3, Q14005
[2] = biological target: MAGI1_2, Q96QZ7
[3] = biological target: Inadl_3, Q8NI35
[4] = biological target: MAST1, Q9Y2H9
[5] = biological target: T1, HTRA4, P83105
T1 sequence (P83105 378-476, limits assumed, looked up): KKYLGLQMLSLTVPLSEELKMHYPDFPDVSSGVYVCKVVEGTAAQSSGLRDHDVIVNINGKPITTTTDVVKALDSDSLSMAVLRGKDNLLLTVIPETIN

[6] = biological target: T2, PARD3B_1, Q8TEW8
T2 sequence (Q8TEW8 196-299, limits assumed, looked up): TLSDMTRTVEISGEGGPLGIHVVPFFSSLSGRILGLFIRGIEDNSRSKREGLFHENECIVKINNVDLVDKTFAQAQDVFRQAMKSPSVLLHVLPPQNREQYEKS

[7] = biological target: MAGI2_3, Q86UL8
[8] = biological target: MAGI2_5, Q86UL8
[9] = biological target: Inadl_9, Q8NI35
[10] = biological target: PICK1, Q9NRD5
[11] = biological target: T3, PDZRN3_1, Q9UPQ7
T3 sequence (Q9UPQ7 244-349, limits assumed, looked up): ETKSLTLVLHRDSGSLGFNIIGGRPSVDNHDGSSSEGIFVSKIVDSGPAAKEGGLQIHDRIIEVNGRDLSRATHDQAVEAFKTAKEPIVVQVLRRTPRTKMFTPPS

[12] = biological target: SCRIB_3, Q14160
[13] = biological target: NHERF2_2, Q15599
[14] = biological target: DLG4_1, P78352
[15] = biological target: T4, SNTG1, Q9NSN8
T4 sequence (Q9NSN8 52-150, limits assumed, looked up): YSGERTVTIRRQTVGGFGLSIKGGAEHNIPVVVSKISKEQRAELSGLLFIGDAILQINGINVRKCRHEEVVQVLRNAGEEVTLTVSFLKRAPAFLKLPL

[16] = biological target: LIMK2, P53671
[17] = biological target: FRMPD4, Q14CM0
[18] = biological target: GRIP2_7, Q9C0E4
[19] = biological target: NHERF4_2, Q86UT5
[20] = biological target: LNX1_1, Q8TBB1
[21] = biological target: T5, NHERF3_4, Q5T2W1
T5 sequence (Q5T2W1 373-468, limits assumed, looked up): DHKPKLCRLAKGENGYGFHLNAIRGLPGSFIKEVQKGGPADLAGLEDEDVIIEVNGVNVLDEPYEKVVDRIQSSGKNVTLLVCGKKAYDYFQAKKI

[22] = biological target: T6, SNTG2, Q9NY99
T6 sequence (Q9NY99 68-166, limits assumed, looked up): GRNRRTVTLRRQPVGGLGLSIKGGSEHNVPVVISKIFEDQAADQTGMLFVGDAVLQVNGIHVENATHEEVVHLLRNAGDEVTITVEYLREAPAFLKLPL

[23] = biological target: HTRA1, Q92743
[24] = biological target: T7, LIN7A, O14910
T7 sequence (O14910 103-200, limits assumed, looked up): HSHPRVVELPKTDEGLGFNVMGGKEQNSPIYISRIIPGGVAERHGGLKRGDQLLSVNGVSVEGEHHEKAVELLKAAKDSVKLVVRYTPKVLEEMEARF

[25] = biological target: T8, MPP7, Q5T2T1
T8 sequence (Q5T2T1 134-230, limits assumed, looked up): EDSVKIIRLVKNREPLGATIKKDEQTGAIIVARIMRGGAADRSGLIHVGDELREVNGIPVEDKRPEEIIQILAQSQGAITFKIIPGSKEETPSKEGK

[26] = biological target: T9, DLG3_2, Q92796
T9 sequence (Q92796 221-321, limits assumed, looked up): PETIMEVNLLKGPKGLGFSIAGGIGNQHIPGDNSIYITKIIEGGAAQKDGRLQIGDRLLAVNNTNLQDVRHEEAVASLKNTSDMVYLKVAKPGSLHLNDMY

[27] = biological target: T10, RAPGEF6, Q8TEU7
T10 sequence (Q8TEU7 525-625, limits assumed, looked up): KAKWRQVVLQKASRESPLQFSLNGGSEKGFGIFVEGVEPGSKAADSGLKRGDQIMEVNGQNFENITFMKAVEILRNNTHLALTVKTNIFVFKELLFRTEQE

[28] = plain residues with an end cap or a label only (N-terminal biotin on a linker: ttds)
[29] = plain residues with an end cap or a label only (N-terminal biotin on a linker: ado-ado)
[30] = plain residues with an end cap or a label only (N-terminal biotin on a linker: ahx)

Measured: pKd

SCRIB_3, Q14160, sequence (Q14160 999-1103): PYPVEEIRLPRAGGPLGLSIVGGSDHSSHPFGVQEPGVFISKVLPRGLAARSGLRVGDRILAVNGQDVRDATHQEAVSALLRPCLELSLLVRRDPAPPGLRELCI
MAGI1_2, Q96QZ7, sequence (Q96QZ7 456-580): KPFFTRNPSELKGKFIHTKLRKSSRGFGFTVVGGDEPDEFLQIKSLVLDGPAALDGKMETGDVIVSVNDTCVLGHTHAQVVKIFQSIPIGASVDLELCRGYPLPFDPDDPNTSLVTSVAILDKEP
Inadl_3, Q8NI35, sequence (Q8NI35 359-469): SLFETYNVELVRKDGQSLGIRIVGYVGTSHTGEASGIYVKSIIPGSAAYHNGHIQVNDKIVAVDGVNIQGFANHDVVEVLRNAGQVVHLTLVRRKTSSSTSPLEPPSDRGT
IL16_3, Q14005, sequence (Q14005 1107-1207): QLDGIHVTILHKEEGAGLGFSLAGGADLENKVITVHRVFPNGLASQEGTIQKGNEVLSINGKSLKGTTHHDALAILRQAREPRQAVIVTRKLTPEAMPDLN
NHERF2_2, Q15599, sequence (Q15599 142-238): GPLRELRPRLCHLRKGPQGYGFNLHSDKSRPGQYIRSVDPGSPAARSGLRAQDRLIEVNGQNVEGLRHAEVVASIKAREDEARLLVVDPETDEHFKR
LNX1_1, Q8TBB1, sequence (Q8TBB1 261-371): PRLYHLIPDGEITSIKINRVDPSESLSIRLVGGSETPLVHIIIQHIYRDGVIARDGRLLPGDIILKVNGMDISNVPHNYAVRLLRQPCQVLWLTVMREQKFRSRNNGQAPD
FRMPD4, Q14CM0, sequence (Q14CM0 67-160): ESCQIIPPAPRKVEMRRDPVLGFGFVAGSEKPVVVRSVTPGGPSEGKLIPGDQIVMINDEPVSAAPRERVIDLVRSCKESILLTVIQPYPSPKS
MAST1, Q9Y2H9, sequence (Q9Y2H9 962-1065): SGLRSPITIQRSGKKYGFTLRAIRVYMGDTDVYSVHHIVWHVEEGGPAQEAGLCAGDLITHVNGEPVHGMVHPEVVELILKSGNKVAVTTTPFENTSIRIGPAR
DLG4_1, P78352, sequence (P78352 62-152): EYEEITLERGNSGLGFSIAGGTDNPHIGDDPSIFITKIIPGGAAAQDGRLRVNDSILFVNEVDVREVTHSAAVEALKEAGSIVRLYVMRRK
HTRA1, Q92743, sequence (Q92743 360-477): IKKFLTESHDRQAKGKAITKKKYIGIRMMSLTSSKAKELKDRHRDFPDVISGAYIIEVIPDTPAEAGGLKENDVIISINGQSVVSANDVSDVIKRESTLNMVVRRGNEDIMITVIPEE
MAGI2_3, Q86UL8, sequence (Q86UL8 600-682): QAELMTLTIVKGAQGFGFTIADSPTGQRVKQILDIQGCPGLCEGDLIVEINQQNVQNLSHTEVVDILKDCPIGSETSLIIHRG
NHERF4_2, Q86UT5, sequence (Q86UT5 220-308): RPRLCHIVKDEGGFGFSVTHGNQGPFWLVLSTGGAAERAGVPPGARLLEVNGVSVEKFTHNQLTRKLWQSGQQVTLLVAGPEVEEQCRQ
GRIP2_7, Q9C0E4, sequence (Q9C0E4 934-1023): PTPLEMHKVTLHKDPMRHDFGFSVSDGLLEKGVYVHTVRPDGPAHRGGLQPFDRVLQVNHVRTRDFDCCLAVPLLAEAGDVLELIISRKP
MAGI2_5, Q86UL8, sequence (Q86UL8 915-1017): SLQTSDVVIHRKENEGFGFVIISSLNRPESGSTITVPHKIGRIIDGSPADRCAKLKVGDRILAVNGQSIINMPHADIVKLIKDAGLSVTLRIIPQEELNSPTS
PICK1, Q9NRD5, sequence (Q9NRD5 17-115): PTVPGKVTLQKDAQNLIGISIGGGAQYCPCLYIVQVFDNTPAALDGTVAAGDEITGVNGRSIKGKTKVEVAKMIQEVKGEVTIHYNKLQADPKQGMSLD
LIMK2, P53671, sequence (P53671 143-248): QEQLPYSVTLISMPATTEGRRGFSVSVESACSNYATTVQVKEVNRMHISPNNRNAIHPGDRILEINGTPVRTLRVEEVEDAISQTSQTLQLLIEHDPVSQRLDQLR
Inadl_9, Q8NI35, sequence (Q8NI35 1530-1615): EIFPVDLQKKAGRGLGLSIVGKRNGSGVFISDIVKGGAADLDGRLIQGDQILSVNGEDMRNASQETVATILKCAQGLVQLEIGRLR

DPLTPSRSQL [DGKK, Q5KSL6]
below the threshold: [1]; [28] | [2]; [28] | [3]; [28] | [5]; [28] | [6]; [28] | [7]; [28] | [8]; [28] | [9]; [28] | [10]; [28] | [11]; [28] | [13]; [28] | [14]; [28] | [15]; [28] | [16]; [28] | [17]; [28] | [19]; [28] | [20]; [28] | [21]; [28] | [23]; [28] | [24]; [28] | [25]; [28] | [26]; [28] | [27]; [28]
3.5: [12]; [28]
4.16: [4]; [28]
3.64: [18]; [28]
3.84: [22]; [28]

QKNKDKEYYV [NRXN3_rs746444206, Q9Y4C0]
4: [3]; [29]
3.53: [15]; [29]
4.79: [25]; [29]
4.41: [9]; [29]
4.8: [18]; [29]
below the threshold: [1]; [29] | [2]; [29] | [4]; [29] | [5]; [29] | [7]; [29] | [8]; [29] | [10]; [29] | [11]; [29] | [12]; [29] | [13]; [29] | [14]; [29] | [16]; [29] | [19]; [29] | [20]; [29] | [21]; [29] | [22]; [29] | [24]; [29] | [26]; [29] | [27]; [29]
3.84: [6]; [29]
5.32: [23]; [29]
4.18: [17]; [29]

HSGSYLVTSV [APC, P25054]
4.23: [15]; [30]
4.05: [2]; [30]
4.45: [12]; [30] | [20]; [30]
4.51: [5]; [30]
4.22: [4]; [30]
4.31: [7]; [30]
4.2: [23]; [30]
4.63: [8]; [30]
below the threshold: [1]; [30] | [3]; [30] | [6]; [30] | [9]; [30] | [10]; [30] | [11]; [30] | [13]; [30] | [16]; [30] | [17]; [30] | [18]; [30] | [19]; [30] | [21]; [30] | [24]; [30] | [25]; [30] | [27]; [30]
3.59: [22]; [30]
4.38: [14]; [30]
5.07: [26]; [30]

RNCSTNDSLL [ADRB2, P07550]
3.7: [13]; [30]
3.62: [23]; [30]
3.73: [3]; [30]
3.74: [4]; [30]
3.75: [6]; [30]
3.54: [11]; [30] | [21]; [30]
3.64: [17]; [30]
below the threshold: [1]; [30] | [2]; [30] | [5]; [30] | [7]; [30] | [8]; [30] | [9]; [30] | [10]; [30] | [12]; [30] | [14]; [30] | [15]; [30] | [16]; [30] | [18]; [30] | [19]; [30] | [20]; [30] | [22]; [30] | [24]; [30] | [25]; [30] | [26]; [30] | [27]; [30]
